Data set [1] has as its target T1, Pif1 (full-length recombinant) (Saccharomyces cerevisiae, UniProt P07271 1-859).
T1 sequence: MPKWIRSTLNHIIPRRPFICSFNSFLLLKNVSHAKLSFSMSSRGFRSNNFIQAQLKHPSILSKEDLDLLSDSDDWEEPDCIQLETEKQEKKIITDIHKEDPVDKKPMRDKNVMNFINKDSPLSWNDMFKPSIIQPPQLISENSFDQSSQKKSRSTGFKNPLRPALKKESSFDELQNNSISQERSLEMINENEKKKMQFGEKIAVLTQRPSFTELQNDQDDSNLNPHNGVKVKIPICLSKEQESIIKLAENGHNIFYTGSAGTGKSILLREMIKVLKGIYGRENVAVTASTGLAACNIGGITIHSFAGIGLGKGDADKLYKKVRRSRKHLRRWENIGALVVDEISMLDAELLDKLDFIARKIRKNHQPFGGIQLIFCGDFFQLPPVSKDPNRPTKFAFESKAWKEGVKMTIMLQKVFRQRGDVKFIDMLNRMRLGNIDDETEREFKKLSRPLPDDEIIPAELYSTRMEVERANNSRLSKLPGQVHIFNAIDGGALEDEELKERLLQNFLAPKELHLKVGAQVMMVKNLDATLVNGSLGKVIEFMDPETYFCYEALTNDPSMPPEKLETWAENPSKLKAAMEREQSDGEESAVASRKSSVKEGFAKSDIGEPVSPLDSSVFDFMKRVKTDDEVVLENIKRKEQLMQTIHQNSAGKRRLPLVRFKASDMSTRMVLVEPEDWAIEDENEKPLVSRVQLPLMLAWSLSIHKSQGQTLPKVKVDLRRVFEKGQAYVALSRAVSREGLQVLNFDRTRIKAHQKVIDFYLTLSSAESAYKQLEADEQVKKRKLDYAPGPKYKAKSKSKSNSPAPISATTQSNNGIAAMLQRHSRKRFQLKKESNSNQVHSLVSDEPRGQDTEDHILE
The data set is described as follows: EMSA; 7.5 mM Mg2+; 25 mM HEPES pH 8.0, 5% glycerol, 50 mM NaOAc, 150 μM NaCl (so in the source), 7.5 mM MgCl2, 0.01% Tween-20; 0.2 nM DNA; 30 °C 30 min; 4 mM ATP when present (not stated per row). Particulars: protein: recombinant, tags: SUMO tag in expression construct (pSUMO-Pif1). (In general: A gel shift assay detects complexes by their altered migration in electrophoresis.)

The target in another data set is T2, Pif1ΔN (Saccharomyces cerevisiae, UniProt P07271 234-859, del1-233).
T2 sequence: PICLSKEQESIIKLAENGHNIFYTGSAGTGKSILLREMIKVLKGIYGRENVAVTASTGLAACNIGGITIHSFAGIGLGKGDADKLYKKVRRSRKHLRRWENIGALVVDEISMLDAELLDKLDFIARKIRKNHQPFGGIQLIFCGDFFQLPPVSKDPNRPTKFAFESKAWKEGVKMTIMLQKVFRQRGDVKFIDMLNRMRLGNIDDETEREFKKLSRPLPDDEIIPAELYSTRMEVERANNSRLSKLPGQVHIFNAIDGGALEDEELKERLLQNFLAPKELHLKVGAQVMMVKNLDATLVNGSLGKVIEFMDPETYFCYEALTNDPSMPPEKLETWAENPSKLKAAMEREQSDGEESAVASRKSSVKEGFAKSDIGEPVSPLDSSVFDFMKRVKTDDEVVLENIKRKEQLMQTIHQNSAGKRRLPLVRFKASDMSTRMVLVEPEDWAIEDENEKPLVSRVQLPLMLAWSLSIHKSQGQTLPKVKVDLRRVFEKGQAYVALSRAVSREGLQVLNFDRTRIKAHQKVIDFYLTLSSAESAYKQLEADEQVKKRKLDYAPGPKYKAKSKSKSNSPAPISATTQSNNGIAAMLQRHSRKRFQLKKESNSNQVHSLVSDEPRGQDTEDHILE
Described as above. As to conditions: protein: recombinant, tags: SUMO tag in expression construct (pSUMO-Pif1ΔN).

[2] abbreviates: label: 32P on helicase loading strand (5' end, T4 PNK; MB1572 implied), fork 1:26-45 2:1-20, unpaired 5' DNA arm 25 nt and 3' RNA arm 25 nt.

B1: RNA-DNA hybrid fork (MB1572/MB1571) (DNA:RNA)
DNA: GAACGCTATGTGAGTGACACTGGGTCACCACACCCACACCACACC
RNA: GGUGUGGUGUGGGUGUGGUGUGGGUCACAGUGAGUGUAUCGCAAG
modifications: MB1571 is all RNA; MB1572 is DNA
For orientation: Kd means the equilibrium constant for the complex coming apart. B1: the Kd in data set [1] (setting [2]) is 0.67 ± 0.085 nM; with Pif1ΔN (setting [2]), 0.135 ± 0.013 nM. In the case of TGTGGTGTGTGTGGG (ssDNA) [Tel15], the dissociation constant Kd in data set [1] (label: 32P (5' end, T4 PNK)) is 112 ± 12.7 nM; with Pif1ΔN (label: 32P (5' end, T4 PNK)) it was 0.39 ± 0.058 nM. Regarding CGCCATGCTGATCCGTGTGGTGTGTGTGGG (ssDNA) [Tel30], the dissociation constant (Kd) in the data set with Pif1ΔN (label: 32P (5' end, T4 PNK)) was 0.41 ± 0.031 nM.

The record behind these values is article PMC6628001, “The Biochemical Activities of the Saccharomyces cerevisiae Pif1 Helicase Are Regulated by Its N-Terminal Domain”.
